One substance from patent publication US20090075291A1, “PEPTIDE-BASED REGULATION OF GAP JUNCTIONS” (The Research Foundation of State University of New York, priority 2006, published 2009) can be followed below.

This experiment addresses Recombinant Cx43CT (carboxyl terminal domain of rat connexin43, residues 255-382, preceded by GPLG) (rat) (UniProt P08050). The experiment can be described thus: SPR, peptide 1.0 mM.

Sequence of Recombinant Cx43CT (carboxyl terminal domain of rat connexin43, residues 255-382, preceded by GPLG) (rat) (P08050 other isoform, or with tags, fused parts or gaps limits assumed): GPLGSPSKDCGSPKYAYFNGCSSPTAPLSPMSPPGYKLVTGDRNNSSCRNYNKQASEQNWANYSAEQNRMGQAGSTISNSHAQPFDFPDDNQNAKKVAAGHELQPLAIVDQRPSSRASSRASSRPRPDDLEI

As to Peptide 2502, AcRNP-NH2, the Response Dose (arbitrary units) is 4.6.
